In publication PMC8156982, “DNA Aptamers against Vaccinia-Related Kinase (VRK) 1 Block Proliferation in MCF7 Breast Cancer Cells” one finds binding result, Kd and binding signal data, which are given here for seven molecules.

One may read the Kd as the concentration at which binding is half-saturated.

Data set [1] addresses T1, VRK1 (vaccinia-related kinase 1), recombinant (UniProt Q99986 1-396).
T1 sequence: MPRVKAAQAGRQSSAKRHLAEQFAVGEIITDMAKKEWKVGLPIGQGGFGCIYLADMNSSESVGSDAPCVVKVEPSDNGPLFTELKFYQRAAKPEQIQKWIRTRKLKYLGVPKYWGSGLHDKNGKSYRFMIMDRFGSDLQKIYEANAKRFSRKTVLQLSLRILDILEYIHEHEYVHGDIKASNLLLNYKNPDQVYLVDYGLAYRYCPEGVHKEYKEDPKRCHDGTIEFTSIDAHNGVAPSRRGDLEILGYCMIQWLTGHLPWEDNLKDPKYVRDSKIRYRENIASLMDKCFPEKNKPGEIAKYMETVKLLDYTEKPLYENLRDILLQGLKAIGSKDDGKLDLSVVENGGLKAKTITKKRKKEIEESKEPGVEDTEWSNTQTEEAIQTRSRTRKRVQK
Nature of the data set: ELONA; 40 nM PCR-labeled chain; 10 mM sodium phosphate, 0.15 M NaCl, pH 7.5, 1 mM MgCl2, 0.2% BSA; 37 C, 1 h; aptamers denatured at 95 C 10 min then ice 10 min; VRK1 coated on plate (20 or 200 ng/well). The settings on record: protein: recombinant; tags: 6xHis; label: digoxigenin (5' when made with primer R5); no G-quadruplex (predicted).

The target of data set [2] is T1, VRK1 (vaccinia-related kinase 1), …. Nature of the data set: ELONA; 1 mM Mg2+; 10 mM sodium phosphate, 0.15 M NaCl, pH 7.5, 1 mM MgCl2, 0.2% BSA; 37 C, 1 h; aptamers denatured at 95 C 10 min then ice 10 min; VRK1 coated on plate (20 or 200 ng/well). The conditions noted are these: protein: recombinant, tags: 6xHis, label: digoxigenin (5' when made with primer F5).
Data set [3] has the same target. Nature of the data set: ELONA; 80 nM; at least twice control; 10 mM sodium phosphate, 0.15 M NaCl, pH 7.5, 1 mM MgCl2, 0.2% BSA; 37 C, 1 h; aptamers denatured at 95 C 10 min then ice 10 min; VRK1 coated on plate (20 or 200 ng/well). The conditions noted are these: protein: recombinant; tags: 6xHis; label: 5' digoxigenin on both chains; PCR duplex denatured at 95 C and cooled on ice.

Where [4] appears, read: possible two G-quadruplexes (predicted).

B1: apVRKR28 (V#R28) (ssDNA)
DNA: TCACCAGCACGTCCATGAGGCAAGAAACCCACCCACCGCCCCCATCCGCCGTCCCTGTAGTGGCATCCGAGCGT
For B1, the binding result in data set [1] is recorded as “binds”.

B2: apVRKF8 (V#F8) (ssDNA)
DNA: ACGCTCGGATGCCACTACAGGGAGGGGGGGGGAAAGTAAGCGGGGGGTCGGCGGCCTCATGGACGTGCTGGTGA
On to B2, for which the Kd in data set [2] (setting [4]) is 45.8 ± 5.01 nM.

B3: apVRK8 (F+R chains) (mixed)
DNA 1: B2 DNA
DNA 2: TCACCAGCACGTCCATGAGGCCGCCGACCCCCCGCTTACTTTCCCCCCCCCTCCCTGTAGTGGCATCCGAGCGT
With B3, the binding signal in data set [3] is above 2 fold over control.

B4: apVRK33 (F+R chains) (mixed)
DNA 1: ACGCTCGGATGCCACTACAGGTTGCGAGGTGGGGGGTGGGTAGGGTGGGAAGTGCCCTCATGGACGTGCTGGTGA
DNA 2: TCACCAGCACGTCCATGAGGGCACTTCCCACCCTACCCACCCCCCACCTCGCAACCTGTAGTGGCATCCGAGCGT
Take B4: in data set [3], the binding signal is above 2 fold over control.

B5: apVRKF33 (V#F33) (ssDNA)
DNA: B4 DNA 1
B5: in data set [2] (setting [4]), the equilibrium dissociation constant (Kd) is 129 ± 55.6 nM.

B6: apVRKF28 (V#F28) (ssDNA)
DNA: ACGCTCGGATGCCACTACAGGGACGGCGGATGGGGGCGGTGGGTGGGTTTCTTGCCTCATGGACGTGCTGGTGA
As for B6, the Kd in data set [2] (possible one G-quadruplex (predicted)) was 60.1 ± 7.05 nM.

B7: apVRK28 (F+R chains) (mixed)
DNA 1: B6 DNA
DNA 2: B1 DNA
B7: the binding signal in data set [3] was above 2 fold over control.
